The domain aggregation screens of Martell et al. (2025)

Test: soluble fraction after stress (log2 fold change); higher = more stays soluble; pooled small domains, quantitative proteomics
Conditions: stress: pH 4
Method in brief: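 Pooled custom libraries of small protein domains were stressed at pH 4 and then measured by high-throughput quantitative proteomics. The fold change in the amount of each domain that stays soluble after the acid stress serves as a measure of aggregation propensity. Fold changes are given on a log2 scale, and higher values mean more of the domain stayed soluble.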

Sequence | soluble fraction (log2)
HMSVPSLVGKTDSEAQSAIKSAGLKVGTVTYQYSDETEKGYVVSQSPYSGNKVNAGSTVNIVVSKGK | 0.155
HMPSPSTLAKVDPFLLVTNADSLLMARPDDSELRAAIITAHINLAKTNNSVDHYKEVLKIEPQNALANYN | 0.0418
HMPNQLLELVEMEIRDLLNEYEFPGDDTPIIQGSALKALEDPMGPWGDKIMDLMDAVDSYIPDPE | -1.46
HMISTVFYVDVKGEVHHPGVYQMKAENRVKDLIEAAGGFTPLADDQKLNLAQLLEDQMVIVVPKKGEEV | -0.221
HMSDIIVQGNRRLDTDLIITDSQIREIGTDEKSLSLAVKNLYKTGYFENVQIFKDNSVVFINVKENQ | -0.358
HMESIAEIDRMNAKIFMDEFQDSLSIMQKTTNPETFFSRYDLAMERLDNMVELQQKGIKFTSDLSSLKAQ | -0.564
HMSEPFDMAVPLTSGGRRLDQVLAELLPQHSRNRLQGWIRDGLLTLDGVTVTEPKRKLAGGEQLALLLP | -0.238
HMKNKFYEEFSDYIFKHTGIHYAEANYYQLDARINKLMKFLETSDENDVLKAIQGGAVKDQRVHQMIVDLA | -1.27
HMPFESEMKHWIHLFAHELNLKVSDKYTQKIIEIFGNNFSEIFNEMSKSSLVSSNEKDLLNALEKSGNIH | -0.862
HMGALSLDMLFDRFDALQEQSMGDKTEGGQELRGMIRTFIEQEKLDIRVTRTTTNAALLEMIEKEMQG | 0.0204
HMDSYSILGIEKESSMEDIEKAYIDKISKIKKEVKNEKNAAAFEAVLTKAYNDILSQKENISEEQELAE | 0.22
HMLMRSPDFLIGWFQNLVAKRETFNDQVQAKNLIEAGKQHIQGEDFDRLLEVNRRLFSLLPQREQE | -1.27
HMTDFNTFSDAIIAAVGSRASGLKVVDNAVSVMVDVSGLNEDQRVEIEADVRAAAEHAGAQSVRIMLT | -0.5
HMHTPSGALLSAIEKEWGSFDNFKKEFTTAATSLFGSGWVWLAKDKKGKLYILSENNAGNPITKGYTPILG | -0.432
HMAGAITEREVEVLELLSRGLGNKEIAKELFVSEATVKSHLSHIYTKLAVDTRAGAVAAAIERRIIRAWR | -0.388
HMAKIDSRKALIDQLTTTFTRAQLEELITKNELSTDARFFLSQWNAKGWIRKTAKNVYEKLR | 0.0107
HMETWKLYKRAYKKYYARYMKGNMSEADFKAWATQAAADRDAAIEQITPEIDAALKAQIIEQLREKLNR | -0.134
HMEAEQLEAIRSALQQLSDMNRTVFNLHVVDGYKHEEIAAMLNITTGTSKAHLHRAKKRLRELID | -0.745
HMGEQVFSRKDLAINGNDLKAVFGWPPGPKYREALDQLFHWVLEDPARNRRETLLAYLHSLYD | -0.774
HMFTNSTSSRQLTNSDDTLRLNISSQTRQMLPNGQPFGGSLSGKLLLVIYGATTRSIPAQTTPEKIVV | 0.105
HMNALVAKYKQGVTEEQQQGQGIIIIKRVVVRDQEAWVYEKKIFDWGGVSYFRDKQRITASTFNQETAL | -1.12
HMERFVVISKDKYANLREEASTNSKVLAKVDNSYLIYNTNTYNENKDWYSVQIERDGNYYQVGYIHKSQL | -1.82
HMAPVTPEERAQAMEEYKAMVTIEGYTPPKNIIEQNYKRGLWSETMLNMAVTKGAITEAEKLEIMN | 0.0947
HMPRIYSITINPEKIRTVIGPGGKVIKDITAKTGTKIEIDDSGKVDIFSPDEEHARMAVEIINTLTEE | -0.221
HMTTEIVRMKKDVKIGQEITAKDIEVVEVGAYNLPDEVIRSSEEVVGKYVSSELLKGEYVLPSKISDTP | -0.53

Sequence | soluble fraction (log2)
HMETPEIPGLTPRQVEIMLLVGKGYSNKEIARFLTISPETVKTHLKEVFLRFGLRNRVEAIDFTRQNGL | -0.358
HMGHASPGNREALQFALERHQARAAEFAEKAGLSIANASTKFKQLWEQGFLMRNESVADSGGVEFLYQR | -0.0683
HMKEDSTIIERIISNLSSASLKTQKAFEYKLTDLMFRFSEGEYEWSSAMEVIREELLPFLNK | -0.645
HMRARTQYWPFVEEKAAELKLPLHLVNVEPLFGEQKVVVHYTANGRIDFRELVHLLARRFHARIEMR | 0.0493
HMDAEVEHLFRIIAELKEKNVAIIYISHKMDEIFRISDDITVYRDGEYIATDRAENLNVDKVIQLMVGREV | -0.538
HMTALPPNVSIDSDERRLLEAIGFDPVDMDVLARDGQFSSVDLFRLLVSLELKGLVENQHGAYQRL | -1.67
HMSSKTKVEDLGLSTRTLNALIGGSIKTAGGLTRKSESDLLSLDGLGEKGITEIKEALENIGLSLK | 0.0218
HMAQIVNLPRKNVNGASYYYYEVQPKETIYSISRKLGVSGAEIQRHNPSVADGLKIGQVLYFPAEG | -0.0603
HMNVNTHKTLILNSTFQPLSLATPQRALALLFSKKINVLKESDIKLRSVGQSVAIPKVAVLTYFVKA | 0.132
HMQGYELKMYVTPDTKYSVAVYDAKNEMVSYTMGFSAKAPFGQEGEVLETVKLEFDKLAVGNYELKYWI | -0.0121
HMQVSDEGAIQLLVQKAIEENPQAIEAFRGGKTSALGPVVGWVMKQSKGAANPTMVKTLLEKAI | 0.378
HMGSGVNVTVNGKRMNLPLKDDHIIFVDIFNYIDFDLSKPKGSIVLKLNGRDAGYTDPIKDGDVIDIYWQ | -0.686
HMNVPFGYTIKDGLLVEQPDEKAILDNILTWKKGQMTVAEIAKKTGMETWKIYGILNYWRNK | -0.438
HMSKIRSEINKFSSDADKPILEWLFERYHWASQWRFVARFSEQRYGVLSYEINRVWEPTIEGRALYDQL | -1.45
HMSMLSQERQSLILDIIKEQGSVTVTRLTEILQSSESTVRRDLSYLASKGKINKVHGGATALG | -0.306
HMAREQISVSQMVRDVRDGQVKNIEVLGQELRLSYADGSQKVTRKEEGQQALEILFASDIDLAALDLEVQ | -1.16
HMEIPTEEILKQKLYYSISEVASWFKVNTSLLRYWENEFDILQPRKTRKGDRLFRVEDIKNLQLIYLL | -0.122
HMAASTPGTVTGSVVNVRPDPSTNNDRIGVIYQGTKVEILAQVGEWYNIQFGPVSGWVHKDYISTGA | -0.161
HMTSFDVMLKSAGANKLAVVKLVKELTGLGLKEAKDIVDAAPSKVKEGVSKEEAEELQKQLTGAGAEVEL | 0.309
HMEGNFFADIRQELMRELDQEAEWSDVQILEKIDDLVLLRTRRSSLTVNEKEQLRKELFYSVRK | -0.394
HMGDLKALMPGKVTQVLVSGGQKVKVGEPVLLMESMKMEQTIVATKDGDISEILVSEGDTVEVGKIMIKI | 0.0925
HMDVNPETLSYYIERADISLDELRTSVKGIDLFLTGEKQPTFNQISNIAKKLNIPTGLLLINKPIEI | -1.37
HMAGGVFELTGKVTADAKAGDLVYVKAATGAGTKPVVTTVKTGADVIIGWLKEPVSSASVDQKMQVVLA | 0.22
HMTKKEFLDILTESLAGNVPASEIEENIRYYKDYIENGEESEEKALEQLGDPHLIARTIIDSFIA | -1.46
HMDDPWHNLANAIVAVAADDYRSALRNEDEGLLKSLELFFHSEWYRILTDVDADRLLGMLRRERS | -1.14

Sequence | soluble fraction (log2)
HMDTSISHLVGRTGEAVTDLRPAGTVMIDGELYDARATEGFIEKGEIVKAIKYQYGQLNVRRVSK | 0.149
HMRARTLSTTGGESLLTLAESLYPDDDRARARFIEATAAANPKLFADIAALTRVLPAGTTLRMPDLRA | 0.129
HMRATLTDETARVVQEPTSESISLTSLRKGEEFEIGKVIRKKKEVWVTVTTSSGVKGYISGDTHIF | ≥ 0.43
HMDAPQRVTYLLPHSRGEVVSWLHRQGEVVAQEYEAEGVRVVVDLRYAQIRQAAKQFDVLPAEG | -0.656
HMRITTKNYFKAISEVGFENLPEVLKKSHLVIEEKTNKGNDWGIYENDAEAKKVFDLAFDKLEEFIDRKED | -0.203
HMSSRNLIIFYDSPQAENALLATAERYGAILLHHYRNLHGIAVAIPADKDMAQAVTYFSRQPGVRQV | 0.103
HMTEPKILTAEESQRLDLILVQQWPELGRRALRELVQQGGVRINGELALKAGQYVQAGERVEVAVP | -0.879
HMKAAQDQDQAATLLQKATGVNQDQAKLAATVLFKEQSVTPIRQAIASGDYYQAYQDAKSLQQQ | 0.22
HMEFLLAIQPFVLLTDHANLTFLREQTDSMMKRIQINISGFEIEFRYVPGLTNILPDKMSRV | -0.199
HMAMTNEEREALISEIKQTVNNSIDLKKDISDTEIKEAITQAVFERSEKSYLSIAEKQDIITAVFNSMR | -0.159
HMRVKLVKKSILASGGENIRVDKFLSNHILTMTRTQIKKLFLDGLVQVNKSFVKPGSILKGNEIITFSIPE | -0.412
HMADLVYLRKRLQDAIAQLPEDMRTAYTLFQIARRSIREIAELTGASESLVKVRIHRAKGKLQELLEDLR | -0.55
HMRLIALPSVTDISIRQAEATLMSIGIKVSSIQYAPSEYKDLVLEVKYRGQSIIQGAKIPEGSSVVLVAGN | -0.122
HMGEKTVPNVIGQKLATAKQLLEKEGLTVGSTSYNKNQADKDTVLSTDPAPGSHLSEGAKVNLTLSSGA | 0.0205
HMGALARLLASVEQELGVTRDRMTRTQKQEAVTLLNEWGAFTLRKSVEDVAEALGVSRFTVYNYLERAEA | -0.866
HMGDIQFMEYRINHSSGWIGKNISDFAAVSKNLVILIKRGQDVVIPRGPTAIMEDDVLVLHA | -1.15
HMKVEFTPAYLKKFKANKNAWKFYEAQTNTYKKQSAWYVISAKQEETRLRRLDLLIYDSENGIHIKPLRR | 0.211
HMSMEIQEIIRQLREKNDWSQEDMAERVGLSKNGYAKIERGETNLNLERLEQIANLFDLSVIDLIEMS | -1.03
HMKTRTVVLKSAGGNKIAVIKIIKEITGLGLVEAKAVADNGGNIKENIPAEEAEAIKTQLTEAGAEVEL | -0.242
HMQTFNADDIEPIIKEILQENPKAISDFLTGNENVVKFLLGQVMKNTKGKANPKVIEELLINQLRELNN | -0.663
HMKDYQGEISVVASGERIDVYLFNYFNLFSRTKIKNHIKNGNILVNENIISPSYILKQNDKIAFNLGAPY | -2.12
HMSVPSVAAVREQTGLSQVKFASLLGVSVRTLQEWEQGRRAPSGAARTLLMVAAKNPQALLEV | -0.0956
HMGNYEEAILAFEAAIKIDPKNADAYRKLAEAYEKTGDEDAALRTLETGAEATGDRELADLAEKKRQELDA | 0.22
HMHMHTADDFKQLAKHTSNGRLRTRYLALYHFKKGETRTQIAAYLGVARGSVNTWVSNYLAYGLEGLQS | -0.0479
HMKNENSLLVSRLAEEKIINRAKLVLMEYLKLSEPQAHRYIEKQAMDLQISRAEVAARVLETYE | 0.101
